Assay results as given in the supplement of paper PMC12764529.
± gives the half width of the 95% confidence interval.

Experiments:
[1] = folding stability dG unfold (combined trypsin and chymotrypsin); higher = more stable
Summary of the method: (§1)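 Mini-proteins designed to be under 80 residues and free of cysteine were carried in a PA-tagged cDNA display construct and digested with trypsin and with chymotrypsin. Each protease was applied at 11 threefold-diluted concentrations, alongside a no-protease condition, before sequencing. K50 came from Bayesian fitting of the sequencing counts, and unfolding free energy was obtained by comparing it with a sequence-predicted unfolded-state K50 and a shared folded-state K50, for each protease separately or for both together. Designs were retained only if their AlphaFold2 dimer inter-PAE exceeded 15.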

[2] = folding stability dG unfold from chymotrypsin proteolysis; higher = more stable
Summary of the method: as §1

| Sequence | folding stability dG unfold [1] | folding stability dG unfold [2] |
| --- | --- | --- |
| SAGGSAGGSAPNIRAKIEPKPDPGGPKLTIDVEDPDNPELPAEEVAKALEEEFPPDKIEPVSAGGSAGGSAG [r3_226_TrROS] | < -1 kcal/mol | -0.7 ± 0.083 kcal/mol |
| SAGGSAGGSAPRLVRVRGPDGGERVIPVPPDVLADRIPPDVPVRVPVVREDGRFRFRVERGSAGGSAGGSAG [r3_86_TrMRF] | < -1 kcal/mol | -0.819 ± 0.88 kcal/mol |
| SAGGSAGGSASLDPVVVTVTRYPTGVTTTTVSSRPGGEPVTTTTTYDPVSPVAPLPASRLASAGGSAGGSAG [r3_336_JUSTAS] | 0.167 ± 0.12 kcal/mol | 0.59 ± 0.032 kcal/mol |
| SAGGSAGGSASLIVISPPGAPRTIPLEGLVEKGIPEREAAELLEKELGIEINLSEPGVIRAKSAGGSAGGSA [r18_7_JUSTAS] | -0.186 ± 0.12 kcal/mol | 0.249 ± 0.044 kcal/mol |
| SAGGSAGGSASLVVVTTKPPNGPETVELTTDYPPDVRRVTTDPKTGATSEVVVLPADAVLPSAGGSAGGSAG [r3_356_JUSTAS] | 0.295 ± 0.2 kcal/mol | 0.873 ± 0.06 kcal/mol |
| SAGGSAGGSASMSTTEITVTELEEPGEGKRLVIETKSFTPEGKEIDSEKVEEEVREELGVKPSAGGSAGGSA [r18_332_JUSTAS] | -0.585 ± 0.24 kcal/mol | -0.0823 ± 0.079 kcal/mol |
| SAGGSAGGSAVEFTDPNGAEVLEIKPLPDGTTRVLTKLPGGEIPIVTYDPNTGKITTTLLPASAGGSAGGSA [r18_483_JUSTAS] | -0.251 ± 0.2 kcal/mol | 0.135 ± 0.11 kcal/mol |
| SAGGSAGGSDIEIIINPNMSLEQAKKFANYLAQENNIPIEIEIIPPPKPEPEPERDPEDGKPKSAGGSAGGS [r12_159_TrROS] | < -1 kcal/mol | -0.232 ± 0.36 kcal/mol |
| SAGGSAGGSDKDVKIKVDPERTPDGNYYYRIEIENGKEINIHMPPENMTPEDAKDFVKDIIKKSAGGSAGGS [r12_218_TrROS] | < -1 kcal/mol | -0.44 ± 0.39 kcal/mol |
| SAGGSAGGSDKIRKALKELGYPYEIDNIDVNVTKNGNPEIEIKYSPGMPPQDQKRIKRAVIDLSAGGSAGGS [r12_352_TrROS] | -0.469 ± 0.15 kcal/mol | -0.14 ± 0.065 kcal/mol |
| SAGGSAGGSDPTYVEVRTLAGPAGPTRVLIRPSSGEWLEAEFPVDRPVVFFVPADVEVEVLPDSAGGSAGGS [r12_517_TrMRF] | 0.0902 ± 0.054 kcal/mol | 0.498 ± 0.048 kcal/mol |
| SAGGSAGGSEEFVILEIPFERKFVVKDPEGGEEREFEFRPVIPLVLPPELAEKLLKSPYLQKKSAGGSAGGS [r12_1015_TrMRF] | 0.416 ± 0.22 kcal/mol | 0.721 ± 0.26 kcal/mol |
| SAGGSAGGSEKLEIVKAFVFENEVILIVKKEKEYYVLKLKFKDGKIESLEFIGPVPENDPSLGSAGGSAGGS [r12_154_TrMRF] | 5.27 ± 0.48 kcal/mol | 4.92 ± 0.16 kcal/mol |
| SAGGSAGGSELITLTEKASLAVGELNLPSPEELAKKKYPDVKPKNITVSTKPGEGLVTVTVDGKSAGGSAGG [r6_81_JUSTAS] | -0.222 ± 0.19 kcal/mol | 0.207 ± 0.091 kcal/mol |
| SAGGSAGGSENAALENPFANRPPIPPVRAVLYDPDGTPRVLEGRSLEEIRRYAEERGVVVDISSAGGSAGGS [r12_244_TrMRF] | -0.165 ± 0.075 kcal/mol | 0.397 ± 0.072 kcal/mol |
| SAGGSAGGSEPRLILTTFPLPEPGEPVLRLLVIGEDRILAVRVVGEKPELRELDRLDDLLAEQSAGGSAGGS [r12_299_TrMRF] | < -1 kcal/mol | -0.433 ± 0.46 kcal/mol |
| SAGGSAGGSFELPVPPNTPVDIEATVTRPDGTPATLVDAEPLGDGTFRVTVRYPDGSTETIEVSAGGSAGGS [r12_31_JUSTAS] | 0.464 ± 0.061 kcal/mol | 0.959 ± 0.038 kcal/mol |
| SAGGSAGGSGAEITTLPEGRALLRLYDEGGVLVEEAEVEVELDAVLVFDRDNPRIGVFGPDELSAGGSAGGS [r12_1002_TrMRF] | -0.203 ± 0.14 kcal/mol | 0.0264 ± 0.13 kcal/mol |
| SAGGSAGGSGGTIKLPLYPPEGKEYKGTIPKEKLEAAIAKGEPIKVTLKTKGKEVKEYTIPIKSAGGSAGGS [r12_991_JUSTAS] | -0.983 ± 0.48 kcal/mol | -0.582 ± 0.44 kcal/mol |
| SAGGSAGGSGHHHMTTRTSTSTDPATGSTTVTTTRTTTDGGTVTTTTTLPPPAATTTTSTTTSSAGGSAGGS [r12_1029_JUSTAS] | -0.165 ± 0.11 kcal/mol | 0.349 ± 0.044 kcal/mol |
| SAGGSAGGSGMPRKIASYEEKEEEDGKKTVKVRFPDDGKEITLSPEKAGKITPDSTVPLEELLSAGGSAGGS [r20_3_JUSTAS] | -0.168 ± 0.43 kcal/mol | 0.404 ± 0.049 kcal/mol |
| SAGGSAGGSGMPTRNVPITTPDGKVVTVVERPPERAEIIFPDGSRATIVDPARGYEEITITPESAGGSAGGS [r12_491_JUSTAS] | 0.542 ± 0.059 kcal/mol | 0.945 ± 0.027 kcal/mol |
| SAGGSAGGSGMSSTSTTTVEIEKDPSTGKVLKKTVTSPTTTLAPGGEWTTTVSTSTEEISPDLSAGGSAGGS [r12_629_JUSTAS] | -0.237 ± 0.4 kcal/mol | -0.101 ± 0.24 kcal/mol |
| SAGGSAGGSIEINPNGNFKIRFRGGNRPQTHTIPIKPGETLDTIKDTIRKHMGPNFPEVEIERSAGGSAGGS [r12_300_TrROS] | -0.152 ± 0.13 kcal/mol | 0.0855 ± 0.11 kcal/mol |
| SAGGSAGGSKPIPIKIKARNKDDGKKREEDIQIPPEALKNGKFDKEQIKKELRKLGPRVEIEISAGGSAGGS [r20_221_TrROS] | < -1 kcal/mol | -0.216 ± 0.18 kcal/mol |

| Sequence | folding stability dG unfold [1] | folding stability dG unfold [2] |
| --- | --- | --- |
| SAGGSAGGSMEKRKLEIEIHLPASEATEEEMEELAEEYAKKNPEADEVTFKFTVEESDKESLESAGGSAGGS [r20_86_JUSTAS] | -0.605 ± 0.33 kcal/mol | -0.141 ± 0.25 kcal/mol |
| SAGGSAGGSMKTVKPTELLASLSPEEEVILTTPTSATRLTVEEVKNVPEDTPVDVEVVPRNAASAGGSAGGS [r12_501_JUSTAS] | 0.244 ± 0.051 kcal/mol | 0.685 ± 0.015 kcal/mol |
| SAGGSAGGSMNVKKVESEKDTGDGSTLTTNTVELPSNIIIVEPVLTPPSGNPQTTTKILPKGLSAGGSAGGS [r12_407_JUSTAS] | -0.5 ± 0.18 kcal/mol | -0.157 ± 0.12 kcal/mol |
| SAGGSAGGSMSTVSTSTTYFPDKKVTTTTTVTPTPDGTTATTPSVTVTPLPPPNPPPAPFNRLSAGGSAGGS [r20_30_JUSTAS] | -0.351 ± 0.36 kcal/mol | -0.125 ± 0.28 kcal/mol |
| SAGGSAGGSNWIEKAINEAMKQHPPGQERKVPIEIYNPNNNKPIGKIPIRIRMDKDGPMEIEISAGGSAGGS [r20_151_TrROS] | 0.529 ± 0.074 kcal/mol | 0.864 ± 0.049 kcal/mol |
| SAGGSAGGSPKKRTVEIDEWDPEEGNVRARIRDDDEEREFPFRTPEDLEDLANEGGIDKITPHSAGGSAGGS [r12_421_TrROS] | 0.0607 ± 0.095 kcal/mol | 0.518 ± 0.027 kcal/mol |
| SAGGSAGGSPNQDFKVKVKIKEFNPGNGHIRIDVEVEGDNPQVQDFAKGIAEGFGFPVEVEPISAGGSAGGS [r20_157_TrROS] | -0.0925 ± 0.14 kcal/mol | 0.34 ± 0.038 kcal/mol |
| SAGGSAGGSQWIEIELPLPNGRNIQIEMWPNNGMVDVEWPDGKEVEFPVETADDALDRVLDALSAGGSAGGS [r12_866_TrROS] | 0.0352 ± 0.21 kcal/mol | 0.552 ± 0.12 kcal/mol |
| SAGGSAGGSSMEVVTPIERPVDVTSPENGEVVKVRVKTLVGKDPNAWTTETTLTLPDGTPVALSAGGSAGGS [r12_283_JUSTAS] | 0.337 ± 0.2 kcal/mol | 0.988 ± 0.11 kcal/mol |
| SAGGSAGGSVEELLAAATSEDPAKGLARAELPSGATATVDPAAGTVTITFTSPGTPSTTTVPAPSAGGSAGG [r6_793_JUSTAS] | < -1 kcal/mol | 0.33 ± 0.13 kcal/mol |
| SAGGSAGGSVYLDPAVLAELEALRQAGLRVAEVREERVEVEGGPPRRVDVRAVVVDLPPEALAASAGGSAGG [r6_771_JUSTAS] | -0.11 ± 0.18 kcal/mol | 0.621 ± 0.056 kcal/mol |
| SAGGSAGGTIRIPPAARNMMKELQKQGFVIEEIKIDEIERTENGPPWIEIDFEIKKLPPEALKDSAGGSAGG [r6_771_TrROS] | -0.939 ± 0.89 kcal/mol | -0.317 ± 0.33 kcal/mol |
| SAGGSAGGVEELAKKLNIEVTGNEVTITLKKKKVTVKKLKAPPLKVKKYVDKKTKKIVKTEVELSAGGSAGG [r6_981_TrROS_Hall] | 0.431 ± 0.29 kcal/mol | 0.9 ± 0.28 kcal/mol |
| SAGGSAIKIDPDYGTIEIYNPDNGKEIEIPIDGLPPGRKMDIEINNDKIEIKMPGGTRELPIDDIKSAGGSA [r15_864_TrROS] | 0.194 ± 0.26 kcal/mol | 0.655 ± 0.068 kcal/mol |
| SAGGSAKTIVIPAEDLTPEEIKALAEENKDKIVIYNKKTKKVVTIEVKDGKITKVEEFPVSEEELKSAGGSA [r15_751_TrROS_Hall] | -0.256 ± 0.67 kcal/mol | 0.173 ± 0.3 kcal/mol |
| SAGGSALKVKSVHQNPDDNYYMITVTIPGPDKAPREIMFPSPEDLEDKLDNLPPGIESVEIHPMKPSAGGSA [r15_589_TrROS] | < -1 kcal/mol | -0.203 ± 0.19 kcal/mol |
| SAGGSAMKIEEEEVEVPLSDEELEALKKNPGKTVKVKVIKIEIEMPEEEKKRLAKELEEKFNIKIESAGGSA [r15_347_TrROS_Hall] | -0.146 ± 0.27 kcal/mol | 0.0343 ± 0.2 kcal/mol |
| SAGGSAMSLEELKKKKVKVKVKEIEVPKGAKIPDGKTVKEGEKILVVDGKVYLPNGKLIAEVEVEESAGGSA [r15_12_TrROS_Hall] | -0.629 ± 0.47 kcal/mol | -0.621 ± 0.22 kcal/mol |
| SAGGSAMSQEEIENKPIEEIAKAILENFPGNTKVEHEFTFKDGSKLRIVVELPEDGEPKIEAEPIGSAGGSA [r15_857_TrMRF] | -0.452 ± 0.56 kcal/mol | -0.0162 ± 0.39 kcal/mol |
| SAGGSASMRTVTLTSTETLELKDPSGNLRVETTPVVVTVPVEVPDPNLPPPAVNSPVLTELLLRLLSAGGSA [r15_728_JUSTAS] | 0.0436 ± 0.084 kcal/mol | 0.413 ± 0.064 kcal/mol |
| SAGGSASTTPIKFPNGFEVTKIEEGKGLVYIKYSPENPEILEKLGVEALETNENEVIVPREAIEKKSAGGSA [r15_984_JUSTAS] | -0.993 ± 0.36 kcal/mol | -0.634 ± 0.28 kcal/mol |
| SAGGSATFEEALREVAEPTGAVPYVDPETGVAYVDFPDGKELEIEVPDGDRIEVRVLPDGRAVARGSAGGSA [r15_256_TrMRF] | < -1 kcal/mol | -0.494 ± 0.19 kcal/mol |
| SAGGSEAAPGEKVTITTVTSSVLKTYETPTGTLETESSTSVTTTTVTVPAAAAAAAGVRYSPDPLLSAGGSA [r2_495_JUSTAS] | < -1 kcal/mol | -0.348 ± 0.14 kcal/mol |
| SAGGSGSIVIKSIEPRLRLERLPNGELREVKEVEVDIEVEVDPETAPEEEIEAVREEAEKLAEELSSAGGSA [r2_40_JUSTAS] | 0.144 ± 0.21 kcal/mol | 0.713 ± 0.082 kcal/mol |
